Residue numbers refer to the chain shown, from its start.

This note sets out measurements from patent US20220064250A1 (AKSTON BIOSCIENCES, published 2022).

The target of experiment [1] is T1, human insulin receptor on human IM-9 cells (human, UniProt P06213 28-1382).
T1 construct: whole, on cells; Endogenous receptor on IM-9 cells; assay run at 4 C; also called IR
In words: IM-9 cells, competition with biotinylated RHI, flow cytometry, 4 C. The protocol: (§1) Cultures of IM-9 cells were centrifuged at 250×g (˜1000 rpm) for 10 min to pellet the cells. Cells were washed once with HBSS or PBS buffer, resuspended in cold FACS staining medium (HBSS/2 mM EDTA/0.1% Na-azide+4% horse serum) to a concentration of 8×10^6 cells/mL and kept on ice or 4° C. until test solutions were made. The insulin-Fc protein was diluted in FACS buffer in 1:3 serial dilutions as 2× concentrations in 1.2 mL tubes (approx. 60 μL volume of each dilution), and the solutions were kept cold on ice until ready for pipetting.
(§2) Biotinylated-RHI was diluted in FACS staining medium to a concentration of 1.25 μg/mL. 40 μL of the serially diluted test compound and 8 μL of 1.25 μg/mL Biotin-RHI were added into each well of a V bottom microtiter plate, mixed by slow vortexing, and placed on ice. […]
(§3) The V-bottom plates containing cells were then analyzed on a Guava 8-HT flow cytometer (Millipore). Biotinylated-RHI binding to insulin receptor was quantitated by the median fluorescence intensity (MFI) of the cells on the FACS FL-2 channel for each concentration of the test compound. […] The % inhibition by test compounds of biotinylated-RHI binding on IM-9 cells was plotted against log concentrations of the test compound, and the resulting IC50 values were calculated using GraphPad Prism (GraphPad Software, La Jolla, Calif.) for the test compounds.
On the technique in general: A flow cytometer gives signals particle by particle.

The target in experiment [2] is T1, human insulin receptor on human IM-9 …. In words: IM-9 cells, competition with biotinylated RHI, flow cytometry, 4 C (Table 5, same data as Table 9). The protocol: as §1, §2, §3
For experiment [3] the target is unchanged. Description: IM-9 cells, competition with biotinylated RHI, flow cytometry, 4 C (Table 3, same data as Table 7). The procedure: (§4) 40 μL of an IM-9 cell suspension (8×10^6 cells/mL) was then added to each well by multichannel pipette, mixed again gently and incubated on ice for 30 min to allow competitive binding on the insulin receptor on IM-9 cells. Cells were then washed twice with 275 μL of ice-cold FACS wash buffer (HBSS/2 mM EDTA/0.1% Na-azide+0.5% horse serum) by centrifuging the V-bottom plate at 3000 rpm for 3 min and aspirating the supernatant. Cells were then resuspended in 40 μL of FACS staining medium containing 1:100 diluted Streptavidin-PE (Life Technologies) for 20 min on ice. Cells were then washed once with 275 μL of ice-cold FACS buffer and finally fixed with 3% paraformaldehyde for 10 min at room temp. Cells were then washed once with 275 μL of ice-cold FACS buffer and resuspended in 250 μl of FACS buffer for analysis.
The V-bottom plates containing cells were then analyzed on a Guava 8-HT flow cytometer (Millipore). Biotinylated-RHI binding to insulin receptor was quantitated by the median fluorescence intensity (MFI) of the cells on the FACS FL-2 channel for each concentration of the test compound. Control wells were labeled only with biotinylated-RHI and were used to calculate the percent (%) inhibition resulting from each test compound concentration. The % inhibition by test compounds of biotinylated-RHI binding on IM-9 cells was plotted against log concentrations of the test compound, and the resulting IC50 values were calculated using GraphPad Prism (GraphPad Software, La Jolla, Calif.) for the test compounds. Lower IC50 values of the test compound therefore indicate greater levels of biotinylated-RHI inhibition at lower concentrations indicating stronger binding of the insulin-Fc fusion protein to the insulin receptor. A control compound, such as unlabeled recombinant human insulin (RHI) was also used as an internal standard to generate an RHI IC50 against which a given compound IC50 could be ratioed (IC50(compound)/IC50(RHI)). […]

The target is the same in experiment [4]. In words: IM-9 cells, competition with biotinylated RHI, flow cytometry, 4 C. The procedure:
as §4
The V-bottom plates containing cells were then analyzed on a Guava 8-HT flow cytometer (Millipore). Biotinylated-RHI binding to insulin receptor was quantitated by the median fluorescence intensity (MFI) of the cells on the FACS FL-2 channel for each concentration of the test compound. […] The % inhibition by test compounds of biotinylated-RHI binding on IM-9 cells was plotted against log concentrations of the test compound, and the resulting IC50 values were calculated using GraphPad Prism (GraphPad Software, La Jolla, Calif.) for the test compounds. […]
The source holds these as a separate data set.

T1 sequence (P06213 28-1382): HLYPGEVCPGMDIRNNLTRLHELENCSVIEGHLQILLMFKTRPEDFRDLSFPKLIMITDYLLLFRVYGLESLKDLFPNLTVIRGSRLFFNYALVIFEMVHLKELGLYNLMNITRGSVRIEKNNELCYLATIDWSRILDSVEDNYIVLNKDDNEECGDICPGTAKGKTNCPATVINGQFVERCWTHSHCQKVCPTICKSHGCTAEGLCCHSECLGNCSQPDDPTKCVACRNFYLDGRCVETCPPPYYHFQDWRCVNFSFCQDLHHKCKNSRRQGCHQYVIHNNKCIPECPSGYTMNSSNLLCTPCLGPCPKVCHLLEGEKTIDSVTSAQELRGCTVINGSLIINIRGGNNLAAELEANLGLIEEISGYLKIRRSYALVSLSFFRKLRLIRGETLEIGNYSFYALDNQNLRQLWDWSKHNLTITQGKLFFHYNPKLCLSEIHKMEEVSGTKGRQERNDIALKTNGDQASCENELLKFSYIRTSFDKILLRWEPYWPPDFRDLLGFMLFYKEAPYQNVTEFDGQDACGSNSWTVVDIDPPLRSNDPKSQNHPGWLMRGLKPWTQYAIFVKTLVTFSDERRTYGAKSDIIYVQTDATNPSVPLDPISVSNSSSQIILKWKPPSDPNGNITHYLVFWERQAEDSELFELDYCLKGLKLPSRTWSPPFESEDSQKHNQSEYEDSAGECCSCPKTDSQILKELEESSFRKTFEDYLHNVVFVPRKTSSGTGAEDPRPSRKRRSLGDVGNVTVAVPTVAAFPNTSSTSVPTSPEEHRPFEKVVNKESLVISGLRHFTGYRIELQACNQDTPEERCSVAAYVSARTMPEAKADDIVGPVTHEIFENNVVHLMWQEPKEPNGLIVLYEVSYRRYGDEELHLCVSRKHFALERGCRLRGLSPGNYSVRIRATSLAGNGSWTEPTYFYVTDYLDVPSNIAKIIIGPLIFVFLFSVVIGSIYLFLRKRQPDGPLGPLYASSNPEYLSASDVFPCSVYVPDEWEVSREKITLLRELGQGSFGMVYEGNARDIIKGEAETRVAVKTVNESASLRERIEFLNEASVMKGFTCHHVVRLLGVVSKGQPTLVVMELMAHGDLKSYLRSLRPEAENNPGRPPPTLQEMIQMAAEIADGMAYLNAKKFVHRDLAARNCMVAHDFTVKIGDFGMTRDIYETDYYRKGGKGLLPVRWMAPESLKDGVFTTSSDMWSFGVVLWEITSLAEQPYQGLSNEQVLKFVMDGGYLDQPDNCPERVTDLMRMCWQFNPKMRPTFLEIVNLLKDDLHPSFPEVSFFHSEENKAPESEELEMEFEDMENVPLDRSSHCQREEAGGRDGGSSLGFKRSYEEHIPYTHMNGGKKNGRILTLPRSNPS

B1: insulin-Fc fusion protein of SEQ ID NO: 51 (insulin polypeptide SEQ ID NO: 16, linker SEQ ID NO: 25, canine IgGB Fc fragment with des hinge D and cNg-K, i.e. … (Fc fusion)
chain: FVNQHLCGSDLVEALALVCGERGFFYTDPTGGGPRRGIVEQCCHSICSLYQLENYCNGGGGAGGGGCPKCPAPEMLGGPSVFIFPPKPKDTLLIARTPEVTCVVVDLDPEDPEVQISWFVDGKQMQTAKTQPREEQFKGTYRVVSVLPIGHQDWLKGKQFTCKVNNKALPSPIERTISKARGQAHQPSVYVLPPSREELSKNTVSLTCLIKDFFPPDIDVEWQSNGQQEPESKYRTTPPQLDEDGSYFLYSKLSVDKSRWQRGDTFICAVMHEALHNHYTQESLSHSPG
notes: Non-glycosylated homodimer made in HEK293 cells; also called cNg-NB138-K
Consider B1, for which the IC50 in experiment [1] and in experiment [2] was 147 nM each time.

B2: insulin-Fc fusion protein of SEQ ID NO: 45 (insulin polypeptide SEQ ID NO: 16, linker SEQ ID NO: 25, canine IgGD Fc fragment SEQ ID NO: 31) (Fc fusion)
chain: FVNQHLCGSDLVEALALVCGERGFFYTDPTGGGPRRGIVEQCCHSICSLYQLENYCNGGGGAGGGGCISPCPVPESLGGPSVFIFPPKPKDILRITRTPEITCVVLDLGREDPEVQISWFVDGKEVHTAKTQPREQQFNSTYRVVSVLPIEHQDWLTGKEFKCRVNHIGLPSPIERTISKARGQAHQPSVYVLPPSPKELSSSDTVTLTCLIKDFFPPEIDVEWQSNGQPEPESKYHTTAPQLDEDGSYFLYSKLSVDKSRWQQGDTFTCAVMHEALQNHYTDLSLSHSPG
notes: Homodimer made in HEK293 cells; the preparation was highly aggregated (12% homodimer)
In experiment [3], B2 displayed a concentration for half-maximal inhibition (IC50) of more than 5000 nM.

B3: insulin-Fc fusion protein of SEQ ID NO: 41 (insulin polypeptide SEQ ID NO: 16, linker SEQ ID NO: 25, canine IgGB Fc fragment SEQ ID NO: 29) (Fc fusion)
chain: FVNQHLCGSDLVEALALVCGERGFFYTDPTGGGPRRGIVEQCCHSICSLYQLENYCNGGGGAGGGGDCPKCPAPEMLGGPSVFIFPPKPKDTLLIARTPEVTCVVVDLDPEDPEVQISWFVDGKQMQTAKTQPREEQFNGTYRVVSVLPIGHQDWLKGKQFTCKVNNKALPSPIERTISKARGQAHQPSVYVLPPSREELSKNTVSLTCLIKDFFPPDIDVEWQSNGQQEPESKYRTTPPQLDEDGSYFLYSKLSVDKSRWQRGDTFICAVMHEALHNHYTQESLSHSPG
notes: Disulfide-linked homodimer made in HEK293 cells; 93% homodimer; native cNg glycosylation site kept
Turning to B3, the IC50 in experiment [3] and in experiment [4] was 28 nM in each case.

B4: insulin-Fc fusion protein of SEQ ID NO: 47 (insulin polypeptide SEQ ID NO: 16, linker SEQ ID NO: 25, canine IgGB Fc fragment with cNg-S) (Fc fusion)
chain: B3 chain with N139S
notes: Non-glycosylated homodimer made in HEK293 cells; also called cNg-NB139-S
Take B4: the IC50 in experiment [1] and in experiment [2] was 145 nM throughout.

B5: insulin-Fc fusion protein of SEQ ID NO: 33 (insulin polypeptide SEQ ID NO: 16, linker SEQ ID NO: 25, canine IgGA Fc fragment SEQ ID NO: 28) (Fc fusion)
chain: FVNQHLCGSDLVEALALVCGERGFFYTDPTGGGPRRGIVEQCCHSICSLYQLENYCNGGGGAGGGGRCTDTPPCPVPEPLGGPSVLIFPPKPKDILRITRTPEVTCVVLDLGREDPEVQISWFVDGKEVHTAKTQSREQQFNGTYRVVSVLPIEHQDWLTGKEFKCRVNHIDLPSPIERTISKARGRAHKPSVYVLPPSPKELSSSDTVSITCLIKDFYPPDIDVEWQSNGQQEPERKHRMTPPQLDEDGSYFLYSKLSVDKSRWQQGDPFTCAVMHETLQNHYTDLSLSHSPG
notes: Disulfide-linked homodimer made in HEK293 cells; the preparation was only 24% homodimer (highly aggregated)
Consider B5, for which the IC50 in experiment [3] and in experiment [4] was 2730 nM in each case.

Broadly, the IC50 is the concentration needed to halve the response being measured. Low values mean inhibition by little substance, high ones a need for much substance.
